The target in the experiment is Bovine brain α/β tubulin (bovine) (UniProt P81947). Nature of the experiment: cell-based or functional assay.
Bovine brain α/β tubulin (bovine), sequence (P81947 whole entry, chain 1 of 2): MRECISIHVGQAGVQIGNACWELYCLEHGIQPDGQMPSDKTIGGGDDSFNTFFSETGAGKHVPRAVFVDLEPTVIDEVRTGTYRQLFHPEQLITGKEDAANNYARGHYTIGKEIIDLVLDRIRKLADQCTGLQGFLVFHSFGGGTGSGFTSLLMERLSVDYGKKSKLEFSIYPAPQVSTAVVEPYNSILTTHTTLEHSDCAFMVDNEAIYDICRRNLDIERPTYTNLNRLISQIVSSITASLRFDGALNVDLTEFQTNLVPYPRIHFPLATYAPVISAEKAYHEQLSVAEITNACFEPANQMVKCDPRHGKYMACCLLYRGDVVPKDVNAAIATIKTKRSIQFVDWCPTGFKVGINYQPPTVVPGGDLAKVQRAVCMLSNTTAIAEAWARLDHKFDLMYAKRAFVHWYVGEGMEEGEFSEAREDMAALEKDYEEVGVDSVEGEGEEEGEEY
Bovine brain α/β tubulin (bovine), sequence (Q6B856 whole entry, chain 2 of 2, further chain): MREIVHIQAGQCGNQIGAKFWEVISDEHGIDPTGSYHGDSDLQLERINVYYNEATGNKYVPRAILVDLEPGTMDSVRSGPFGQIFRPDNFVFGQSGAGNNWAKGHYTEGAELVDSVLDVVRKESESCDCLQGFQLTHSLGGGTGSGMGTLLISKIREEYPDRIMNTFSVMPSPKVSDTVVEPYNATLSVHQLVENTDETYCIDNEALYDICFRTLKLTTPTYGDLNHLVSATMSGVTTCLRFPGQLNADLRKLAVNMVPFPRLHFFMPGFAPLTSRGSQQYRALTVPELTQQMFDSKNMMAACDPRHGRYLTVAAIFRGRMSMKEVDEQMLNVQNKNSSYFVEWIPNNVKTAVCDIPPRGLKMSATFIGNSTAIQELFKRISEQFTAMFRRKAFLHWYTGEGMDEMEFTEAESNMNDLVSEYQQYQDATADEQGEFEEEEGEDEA

In turn, GST-PN2-2 (from UniProt Q9HC77 191-310) returned a distribution of tubulin in supernatant and pellet, in vitro microtubule sedimentation assay (15 µM tubulin) of 40 µM.
